Test results as given in patent publication US20250171555A1 (VISTERRA, published 2025).

Key:
C5aR2 VLP [1] = biological target: T1, C5aR2 VLP (UniProt Q9P296 1-337); experiment: ELISA, C5aR2 VLP immobilized at 30 µg/mL, antibody titrated
C5aR2 VLP [2] = biological target: T1, C5aR2 VLP; experiment: ELISA, C5aR2 VLP immobilized, as in Example 1

T1 sequence (Q9P296 whole entry): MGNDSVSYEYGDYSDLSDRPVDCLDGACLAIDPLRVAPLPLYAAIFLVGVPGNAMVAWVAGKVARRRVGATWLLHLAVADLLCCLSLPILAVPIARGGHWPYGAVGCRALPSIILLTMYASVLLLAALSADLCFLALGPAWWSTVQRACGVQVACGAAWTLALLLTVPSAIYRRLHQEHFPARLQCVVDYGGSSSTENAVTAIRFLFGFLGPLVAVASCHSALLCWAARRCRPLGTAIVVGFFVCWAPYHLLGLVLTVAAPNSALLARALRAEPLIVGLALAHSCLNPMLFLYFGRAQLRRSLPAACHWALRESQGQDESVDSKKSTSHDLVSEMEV

Binder	binding result (C5aR2 VLP [1])	binding result (C5aR2 VLP [2])
c2139 (antibody, human IgG4 S228P, kappa, also called humanized Site II antibody; monospecific C5aR1 antibody) heavy: not shown light: DVQMTQSPSSLSASVGDRVTITCRASQSIVHSNGNTYLHWYQQKPGKAPKFLIYKVSNRFSGVPSRFSGSGSGTDFTLTISSLQPEDFATYYCAQYTLVPLTFGQGTKLEIKRTVAAPSVFIFPPSDEQLKSGTASVVCLLNNFYPREAKVQWKVDNALQSGNSQESVTEQDSKDSTYSLSSTLTLSKADYEKHKVYACEVTHQGLSSPVTKSFNRGEC	no binding	–
c2137-e1711 (bispecific antibody, human IgG4 S228P, kappa, Tetravalent Fab-Fc-linker-scFv; also called humanized biparatopic antibody; biparatopic C5aR1 antibody) heavy: not shown light: DVQMTQSPSSLSASVGDRVTITCRASQSIVHSNGNTYLHWYQQKPGKAPKFLIYKVSNRFSGVPSRFSGSGSGTDFTLTISSLQPEDFATYYCAQSTLVPLTFGQGTKLEIKRTVAAPSVFIFPPSDEQLKSGTASVVCLLNNFYPREAKVQWKVDNALQSGNSQESVTEQDSKDSTYSLSSTLTLSKADYEKHKVYACEVTHQGLSSPVTKSFNRGEC	no binding	–
c2139-Fcmod (antibody, human IgG4 S228P, kappa, also called c2139-Fmod; monospecific antibody with modified Fc domain) heavy: not shown light: DVQMTQSPSSLSASVGDRVTITCRASQSIVHSNGNTYLHWYQQKPGKAPKFLIYKVSNRFSGVPSRFSGSGSGTDFTLTISSLQPEDFATYYCAQYTLVPLTFGQGTKLEIKRTVAAPSVFIFPPSDEQLKSGTASVVCLLNNFYPREAKVQWKVDNALQSGNSQESVTEQDSKDSTYSLSSTLTLSKADYEKHKVYACEVTHQGLSSPVTKSFNRGEC	–	no binding
c2137-e1711-Fcmod (bispecific antibody, human IgG4 S228P, kappa, Fab-Fc-linker-scFv; also called biparatopic antibody with modified Fc domain) heavy: not shown light: DVQMTQSPSSLSASVGDRVTITCRASQSIVHSNGNTYLHWYQQKPGKAPKFLIYKVSNRFSGVPSRFSGSGSGTDFTLTISSLQPEDFATYYCAQSTLVPLTFGQGTKLEIKRTVAAPSVFIFPPSDEQLKSGTASVVCLLNNFYPREAKVQWKVDNALQSGNSQESVTEQDSKDSTYSLSSTLTLSKADYEKHKVYACEVTHQGLSSPVTKSFNRGEC	–	no binding
